Assay results published in patent publication US10487121B2, “D-peptide inhibitors of HIV entry and methods of use” (priority 2016, dated 2019).
Numbered stars: 1 amine (or outer) side, 2 acyl side, 3 side chain; on linkers, the order of the positions; unused ones are H or OH. Bridge positions count the residues as written; N and C are the ends. Square brackets hold non-standard residues; d marks the D form. I, II: the chains in the order shown. X1 = CC(C)CCC[C@@H](C)[C@H]1CC[C@H]2[C@@H]3CC=C4C[C@@H](OC(=O)NCCOCCOCCOCCOCCC(=O)NCCOCCOCCOCCOCCOCCOCCOCCOCCOCCOCCOCCOCCOCCOCCOCCOCCOCCOCCOCCOCCOCCOCCOCCOCCOCCOCCOCCOCCC(=O)NC(CCC(=O)[*:1])(CCC(=O)[*:2])CCC(=O)[*:3])CC[C@]4(C)[C@H]3CC[C@]12C; PEG4 = NCCOCCOCCOCCOCCC(=O)O

Tests used:
[1] = target: HXB2 (X4) luciferase reporter pseudovirions on HOS-CD4-CXCR4; conditions: values marked * from Francis, et al. Bioconjugates, read-out: Antiviral potency HXB2 (IC50); cited from earlier work
[2] = target: JRFL (R5) luciferase reporter pseudovirions on HOS-CD4-CCR5; conditions: values marked * from Francis, et al. Bioconjugates, read-out: Antiviral potency JRFL (IC50); cited from earlier work
[3] = Rodent pharmacokinetics of PIE12-trimer and conjugates (Table 3 protocol); type: in vivo, Sprague Dawley rats; conditions: rats, 1.0 mg/kg, plasma, median; for half-life: read-out: T1/2 (converted)
Method: At each timepoint, plasma was obtained using lithium heparin.
Samples were spiked with an internal standard then precipitated with two volumes of 98% acetonitrile/2% Formic acid. Supernatants were analyzed by LC/MS/MS using an Agilent HPLC system (Waters X-Bridge BEH C18 column) paired to an AB Sciex API 3000 triple-quad mass spectrometer using MRM methods. Lipid conjugates required lower source temperatures (300° C. vs 500° C.) for improved reproducibility.

[4] = Rat pharmacokinetics of cholesterol conjugates, Calvert study (Table 4 protocol)
Method: For PIE12 monomer conjugates, in-life studies were performed by Invitek (Hayward, Calif.). Trimeric conjugate in-life studies were performed at Navigen (Salt Lake City, Utah). […] At each timepoint, plasma was obtained using lithium heparin. […] Plasma samples were stored at −80° C. and shipped prior to bioanalysis.
The column temperature was maintained at 70° C.
Fifty microliter aliquots of plasma for each time point was precipitated with 2.5 volumes of ice-cold acetonitrile containing 2% trifluoroacetic acid (v/v) and 370 nM CPT12 as internal standard. […] The column temperature was maintained at 70° C.
CPT31 in Rat Plasma-Calvert Study
Fifty microliter aliquots of plasma for each time point was precipitated with 5 volumes of ice-cold acetonitrile containing 1% formic acid (v/v). No internal standard was used. […] The column temperature was maintained at 40° C.
All of the PK data presented in Table 3 was generated using the same animal protocols and similar bioanalytical methods. Different animal protocols and improved bioanalytical methods were used to generate the data in Table 4 (all PK fitiing was performed using WinNonlin software).

[5] = tested on: JRFL (R5) luciferase reporter pseudovirions on HOS-CD4-CCR5; assay: Pseudovirion entry assay, JRFL; type: cell-based, HIV-1
Method: Pseudovirion assays were performed as previously described (Welch et al., 2010, J. Virol. 84:11235-44; Welch et al., 2007, Proc. Natl. Acad. Sci. 104:16827-16833, each of which is incorporated herein by reference in its entirety). Briefly, a six-point dilution series of each inhibitor was generated in quadruplicate on HOS-CD4-CXCR4 (for HXB2) or HOS-CD4-CCR5 (for JRFL) monolayers in 96 well plates, after which HXB2 (X4) or JRFL (R5) luciferase reporter pseudovirions were added. After 2 days, cells were lysed using GloLysis buffer (Promega) and BrightGlo luciferase substrate (Promega) was added. Luminescence was read on a PolarStar Optima (BMG) plate reader and normalized to uninhibited controls. Inhibition curves were plotted and fit to a standard IC50 equation for normalized data [(1−c/(IC50+c)], weighting each point by its standard error using KaleidaGraph (Synergy Software). Reported IC50 values are the average of at least two independent quadruplicate assays.

[6] = Non-human primate pharmacokinetics; type: in vivo, cynomolgus monkeys
Method: Non-Human Primate Pharmacokinetics
In-life was performed by Calvert Laboratories (Scott Township, Pa.). […] Upon IV dosing, 1 ml blood samples were collected at 0.083, 0.167, 0.25, 0.5, 1, 2, 4, 8, 16 and 24 h post-dose into chilled tubes containing K2EDTA, mixed by inversion, and centrifuged (3000 rpm, 4° C., 15 min) to isolate plasma. Plasma was stored at −80° C. until bioanalysis.
Following a 13-day washout period, study animals were administered a single subcutaneous dose of CPT31 (10 mg/ml in 50 mM HEPES, pH 7.4) into the loose skin of the back between the shoulder blades at a dose of 3 mg/kg. Plasma samples were collected at pre-dose, 0.25, 0.5, 1, 2, 4, 8, 16, 24 and 48 hours post-dose. Collected blood samples were treated as described above. The pre-dose sample confirmed drug levels were below the lower limit of quantification (5.00 nM).
CPT31 in Monkey Plasma-Calvert Study
The internal standard, CPT31-IS was synthesized with an additional glycine on each PIE12-2 monomer (three in total), increasing the molecular mass by 171.1 Da. Plasma samples (200 μl) were spiked with CPT31-IS to a concentration of either 60 or 150 nM, then precipitated in 2% NH4OH in acetonitrile (500 μl). Following centrifugation, the supernatant was applied to a strong anion exchange solid-phase extraction 96-well plate (SOLAμ SAX, 2 mg/ml 96-well plate). The anion exchange plate was first conditioned with 400 μl of 2% NH4OH in methanol, followed by 400 μl of 2% NH4OH in water. The precipitated supernatant (500 μl) was then loaded into each well, followed by washing with 500 μl of 2% NH4OH in water, then 500 μl of methanol. Sample was eluted using two 50 μl aliquots of 2% formic acid in methanol.
LC-MS analysis was conducted using an Agilent Infinity 1290 HPLC system paired to an Agilent 6450A Q-TOF mass spectrometer equipped with a Dual Jet Spray ESI source. […] Samples were analyzed against a standard curve of CPT31 from 5.00-2,000 nM.

[7] = Solubility in standard aqueous buffers
HSA = HSA (Homo sapiens, UniProt P02768); conditions: cited from earlier work
[8] = humans; cited from earlier work
[9] = rats, IV, 1.0 mg/kg, plasma, median, updated protocols
[10] = rats, SC, 1.0 mg/kg, plasma, median, updated protocols

Chain of HSA (P02768 25-609): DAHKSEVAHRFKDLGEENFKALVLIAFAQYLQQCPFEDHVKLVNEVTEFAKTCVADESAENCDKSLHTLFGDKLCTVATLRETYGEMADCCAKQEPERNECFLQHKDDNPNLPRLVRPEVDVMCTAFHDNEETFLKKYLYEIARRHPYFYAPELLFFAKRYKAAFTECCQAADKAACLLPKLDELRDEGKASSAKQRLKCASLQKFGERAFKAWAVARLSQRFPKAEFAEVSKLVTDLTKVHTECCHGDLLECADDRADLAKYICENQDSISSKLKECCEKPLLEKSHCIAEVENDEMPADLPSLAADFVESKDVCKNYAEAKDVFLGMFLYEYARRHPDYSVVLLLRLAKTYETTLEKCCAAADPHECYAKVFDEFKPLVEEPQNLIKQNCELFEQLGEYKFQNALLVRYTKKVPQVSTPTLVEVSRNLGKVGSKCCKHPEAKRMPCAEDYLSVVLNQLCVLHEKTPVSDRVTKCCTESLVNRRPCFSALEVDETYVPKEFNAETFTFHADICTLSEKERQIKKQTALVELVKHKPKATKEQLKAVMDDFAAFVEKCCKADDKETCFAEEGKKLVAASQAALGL

In the case of CC(=O)N[C@H](Cc1c[nH]cn1)C(=O)N1CCC[C@@H]1C(=O)N[C@@H]1CSSC[C@H](C(=O)N[C@H](CCC(=O)O)C(=O)N[C@H](CC(C)C)C(=O)NCC(=O)N[C@H](CCCCNC(=O)CCOCCOCCOCCOCCNC(=O)CCOCC(N)(COCCC(=O)NCCOCCOCCOCCOCCC(=O)NCCCC[C@@H](NC(=O)CNC(=O)[C@@H](CC(C)C)NC(=O)[C@@H](CCC(=O)O)NC(=O)[C@H]2CSSC[C@@H](NC(=O)[C@H]3CCCN3C(=O)[C@@H](Cc3c[nH]cn3)NC(C)=O)C(=O)N[C@H](CC(=O)O)C(=O)N[C@H](Cc3ccc(O)cc3)C(=O)N3CCC[C@@H]3C(=O)N[C@H](CCC(=O)O)C(=O)N[C@H](Cc3c[nH]c4ccccc34)C(=O)N[C@H](CCC(N)=O)C(=O)N[C@H](Cc3c[nH]c4ccccc34)C(=O)N[C@H](CC(C)C)C(=O)N2)C(N)=O)COCCC(=O)NCCOCCOCCOCCOCCC(=O)NCCCC[C@@H](NC(=O)CNC(=O)[C@@H](CC(C)C)NC(=O)[C@@H](CCC(=O)O)NC(=O)[C@H]2CSSC[C@@H](NC(=O)[C@H]3CCCN3C(=O)[C@@H](Cc3c[nH]cn3)NC(C)=O)C(=O)N[C@H](CC(=O)O)C(=O)N[C@H](Cc3ccc(O)cc3)C(=O)N3CCC[C@@H]3C(=O)N[C@H](CCC(=O)O)C(=O)N[C@H](Cc3c[nH]c4ccccc34)C(=O)N[C@H](CCC(N)=O)C(=O)N[C@H](Cc3c[nH]c4ccccc34)C(=O)N[C@H](CC(C)C)C(=O)N2)C(N)=O)C(N)=O)NC(=O)[C@@H](CC(C)C)NC(=O)[C@@H](Cc2c[nH]c3ccccc23)NC(=O)[C@@H](CCC(N)=O)NC(=O)[C@@H](Cc2c[nH]c3ccccc23)NC(=O)[C@@H](CCC(=O)O)NC(=O)[C@H]2CCCN2C(=O)[C@@H](Cc2ccc(O)cc2)NC(=O)[C@@H](CC(=O)O)NC1=O [PIE12-trimer], the IC50 [1] is listed as 0.72 ± 0.04 nM, the IC50 [2] is listed as 2.1 ± 0.28 nM and the AUC(0-inf) ([3]; rat, in vivo, IV) is listed as 0.168 µM·h. For the same compound, the C0 ([3]; rat, in vivo, IV) was 275 nM, the clearance ([3]; rat, in vivo, IV, read-out: Cl (obs) (converted)) was 13.9 mL/min/kg and the half-life ([3]; rat, in vivo, IV) was 0.55 h. For the same compound, the Vd ([3]; rat, in vivo, IV, read-out: Vz (obs)) was 0.7 L/kg, the AUC(0-inf) ([3]; rat, in vivo, SC) was 0.208 µM·h and the Cmax ([3]; rat, in vivo, SC) was 80 nM. It also gave a Tmax ([3]; rat, in vivo, SC) of 0.5 h, a half-life ([3]; rat, in vivo, SC) of 0.81 h and an F ([3]; SC) of 96%.
For “CPT24-5kD: includes 5 kDa of linear polydisperse PEG between PIE12-trimer and thiocholesterol”, the “prolonged half-life compared to CPT24” value ([4]; rats, IV) was 3.5 fold, the “AUC(0-inf)” value [4, 9] was 4.578 µM·h and the C0 [4, 9] was 1100 nM. For the same compound, the “Cl (obs)” value [4, 9] was 0.243 mL/min/kg, the T1/2 [4, 9] was 5.62 h and the “Vz (obs)” value [4, 9] was 0.118 L/kg. The “prolonged half-life compared to CPT24” value ([4]; rats, SC) was 1.8 fold, the “AUC(0-inf)” value [4, 10] was 1.557 µM·h and the Cmax [4, 10] was 89 nM. The T1/2 [4, 10] was 7.21 h and the “antiviral potency, in words” value [5] was “comparable to CPT24”.
Compound “I: Ac-[dH][dP][dC][dD][dY][dP][dE][dW][dQ][dW][dL][dC][dE][dL]G[PEG4][dK]-NH2 / II: Ac-[dH][dP][dC][dD][dY][dP][dE][dW][dQ][dW][dL][dC][dE][dL]G[PEG4][dK]-NH2 / III: Ac-[dH][dP][dC][dD][dY][dP][dE][dW][dQ][dW][dL][dC][dE][dL]G[PEG4][dK]-NH2 (disulfide I:3-I:12, II:3-II:12, III:3-III:12; linker I:17-II:17-III:17 via X1) [CPT31]” has a bioavailability ([4]; male, rat, in vivo, sc, 1 mg/kg) of 55%, a half-life ([4]; rat, in vivo, iv, 1 mg/kg) of 3.25 h and a half-life ([4]; rat, in vivo, sc) of 5.4 h. For the same compound, the half-life ([6]; cynomolgus monkey, in vivo, non-human primates, SC, read-out: subcutaneous half-life (converted)) was 18 h, the bioavailability ([6]; cynomolgus monkey, male cynomolgus monkeys, SC, 3.0 mg/kg, plasma, median) was 80.4% and the adverse events ([6]; cynomolgus monkeys, IV 1 mg/kg then SC 3 mg/kg) was “no adverse events were observed”. It also gave a solubility [7] of roughly 40 mg/mL.
For enfuvirtide, the “HSA binding, in words” value (HSA) is listed as “highly HSA bound” and the “volume of distribution, in words” value [8] is listed as “reduced volume of distribution”.
